The values below come from paper PMC11417369, “DNA sequence and chromatin differentiate sequence-specific transcription factor binding in the human malaria parasite Plasmodium falciparum”.

The target in the data set is T1, AP2-G D1 (Plasmodium falciparum, UniProt Q8I5I9 2123-2245).
T1 sequence: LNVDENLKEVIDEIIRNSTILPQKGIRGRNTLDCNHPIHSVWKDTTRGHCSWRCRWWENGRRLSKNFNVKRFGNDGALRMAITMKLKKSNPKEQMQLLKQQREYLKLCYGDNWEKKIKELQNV
The experiment in a line: gcPBM; about 25 ug protein; PBS, 1% milk, 0.2 mg/ml BSA, salmon testes DNA, 0.03% Triton X-100. To be noted: tags: N-terminal GST (pGEX-4T-1), kept; label: surface-attached array probe.

B1: XGTACX_site841 (dsDNA)
DNA 1: TATATATATAATATATGTACTGATATGCTATTTACT
DNA 2: AGTAAATAGCATATCAGTACATATATTATATATATA
B1: the binding signal is 11 ln median PBM intensity, better of two orientations.

B2: XGTACX_site1414 (dsDNA)
DNA 1: CTATAATATTATAACAGTACATAATATTATATATAT
DNA 2: ATATATATAATATTATGTACTGTTATAATATTATAG
On to B2, for which the binding signal is 10.8 ln median PBM intensity, better of two orientations.

B3: XGTACX_site3331 (dsDNA)
DNA 1: AAAAATTTTTTACATCGTACAGATATATATAATAAA
DNA 2: TTTATTATATATATCTGTACGATGTAAAAAATTTTT
Turning to B3, the binding signal is 11.2 ln median PBM intensity, better of two orientations.

B4: XGTACX_site5843 (dsDNA)
DNA 1: ATTTCAAAATATAGCTGTACAAAAAATGTAGATATA
DNA 2: TATATCTACATTTTTTGTACAGCTATATTTTGAAAT
Turning to B4, the binding signal was 11.2 ln median PBM intensity, better of two orientations.

B5: XGTACX_site5674 (dsDNA)
DNA 1: TATCTAGTTACTCCTTGTACATAATAAATGATTTTT
DNA 2: AAAAATCATTTATTATGTACAAGGAGTAACTAGATA
For B5, the binding signal was 11 ln median PBM intensity, better of two orientations.

B6: XGTACX_site4444 (dsDNA)
DNA 1: ATATAATATTGAGTTTGTACATATATATATGAAGAT
DNA 2: ATCTTCATATATATATGTACAAACTCAATATTATAT
In the case of B6, the binding signal is 11.1 ln median PBM intensity, better of two orientations.

B7: XGTACX_site8424 (dsDNA)
DNA 1: TATTTTGTCATAGAACGTACTTATAAATATTTTTTT
DNA 2: AAAAAAATATTTATAAGTACGTTCTATGACAAAATA
Take B7: the binding signal is 11.3 ln median PBM intensity, better of two orientations.

B8: XGTACX_site1904 (dsDNA)
DNA 1: TTGACATATAAGATATGTACTAATACACACACATAT
DNA 2: ATATGTGTGTGTATTAGTACATATCTTATATGTCAA
Regarding B8, the binding signal is 11.2 ln median PBM intensity, better of two orientations.

B9: XGTACX_site8765 (dsDNA)
DNA 1: TTCCCTCCTCAAAATTGTACTAGAATAATAACATAA
DNA 2: TTATGTTATTATTCTAGTACAATTTTGAGGAGGGAA
Turning to B9, the binding signal was 11 ln median PBM intensity, better of two orientations.

B10: XGTACX_site2716 (dsDNA)
DNA 1: AAAACTTTCCATGTTTGTACATAAAATATAATAATT
DNA 2: AATTATTATATTTTATGTACAAACATGGAAAGTTTT
As to B10, the binding signal was 11.3 ln median PBM intensity, better of two orientations.

B11: XGTACX_site4930 (dsDNA)
DNA 1: TGGAGGATAGTTCACAGTACCCAGTAACTCTACGGA
DNA 2: TCCGTAGAGTTACTGGGTACTGTGAACTATCCTCCA
For the molecule B11, the binding signal is 10.9 ln median PBM intensity, better of two orientations.

B12: XGTACX_site3854 (dsDNA)
DNA 1: AACCATTCTTCTAATTGTACATTGAAAAATCATGAT
DNA 2: ATCATGATTTTTCAATGTACAATTAGAAGAATGGTT
Consider B12, for which the binding signal was 11.1 ln median PBM intensity, better of two orientations.

B13: XGTACX_site3550 (dsDNA)
DNA 1: AATATTAAAGAATAATGTACAAAATAAAAGCAAAGA
DNA 2: TCTTTGCTTTTATTTTGTACATTATTCTTTAATATT
Consider B13, for which the binding signal is 10.9 ln median PBM intensity, better of two orientations.

B14: XGTACX_site972 (dsDNA)
DNA 1: GAAACAAAATTATTTTGTACATATGACTGTAGATAT
DNA 2: ATATCTACAGTCATATGTACAAAATAATTTTGTTTC
As for B14, the binding signal was 11.2 ln median PBM intensity, better of two orientations.

B15: XGTACX_site611 (dsDNA)
DNA 1: TAATTTCTTATGTATTGTACAAATAATATATGATAT
DNA 2: ATATCATATATTATTTGTACAATACATAAGAAATTA
With B15, the binding signal was 11.3 ln median PBM intensity, better of two orientations.

B16: XGTACX_site8946 (dsDNA)
DNA 1: ATTAATCCAAATGAATGTACTTAATAATGTAATTAT
DNA 2: ATAATTACATTATTAAGTACATTCATTTGGATTAAT
Regarding B16, the binding signal is 11.2 ln median PBM intensity, better of two orientations.

B17: XGTACX_site8398 (dsDNA)
DNA 1: TAAAAAATAAAATAATGTACATATGAATTATATATT
DNA 2: AATATATAATTCATATGTACATTATTTTATTTTTTA
Regarding B17, the binding signal is 11.2 ln median PBM intensity, better of two orientations.

B18: XGTACX_site1104 (dsDNA)
DNA 1: ACCATATAATTTTTTTGTACATAATGATTTTTTTTT
DNA 2: AAAAAAAAATCATTATGTACAAAAAAATTATATGGT
In the case of B18, the binding signal was 11.1 ln median PBM intensity, better of two orientations.

B19: XGTACX_site6203 (dsDNA)
DNA 1: AAAAAAAAAAAATAAAGTACTAAATAATACATTATA
DNA 2: TATAATGTATTATTTAGTACTTTATTTTTTTTTTTT
As to B19, the binding signal was 11.2 ln median PBM intensity, better of two orientations.

B20: XGTACX_site4821 (dsDNA)
DNA 1: AATAAAACATCATCATGTACAAAATTCGTCTTTGTA
DNA 2: TACAAAGACGAATTTTGTACATGATGATGTTTTATT
Turning to B20, the binding signal is 10.6 ln median PBM intensity, better of two orientations.

B21: XGTACX_site1009 (dsDNA)
DNA 1: AATGTATTTATTTTTTGTACATATCGTGTGTGTATT
DNA 2: AATACACACACGATATGTACAAAAAATAAATACATT
B21: the binding signal was 11.2 ln median PBM intensity, better of two orientations.

B22: XGTACX_site4926 (dsDNA)
DNA 1: ATCAACATTATGGTTAGTACTTAGTGAATTGTTAAT
DNA 2: ATTAACAATTCACTAAGTACTAACCATAATGTTGAT
Take B22: the binding signal was 11 ln median PBM intensity, better of two orientations.

B23: XGTACX_site5075 (dsDNA)
DNA 1: AAATGAAGATTTAAATGTACGAGAGGGTATACAAAT
DNA 2: ATTTGTATACCCTCTCGTACATTTAAATCTTCATTT
In the case of B23, the binding signal was 11.2 ln median PBM intensity, better of two orientations.

B24: XGTACX_site4853 (dsDNA)
DNA 1: TTTGACACAATATTTTGTACGAAACTATTAATTCAA
DNA 2: TTGAATTAATAGTTTCGTACAAAATATTGTGTCAAA
In the case of B24, the binding signal is 11 ln median PBM intensity, better of two orientations.

B25: XGTACX_site1874 (dsDNA)
DNA 1: GGTATAAAGAAATTTTGTACATATTTCTCCCTTTAA
DNA 2: TTAAAGGGAGAAATATGTACAAAATTTCTTTATACC
On to B25, for which the binding signal was 11.1 ln median PBM intensity, better of two orientations.

B26: XGTACX_site2156 (dsDNA)
DNA 1: AATATATATATATATAGTACATATTTTTATTCATTA
DNA 2: TAATGAATAAAAATATGTACTATATATATATATATT
As to B26, the binding signal was 11.1 ln median PBM intensity, better of two orientations.

B27: XGTACX_site2105 (dsDNA)
DNA 1: ATTAATTATTGTAATTGTACATTTTATATATATCCA
DNA 2: TGGATATATATAAAATGTACAATTACAATAATTAAT
Turning to B27, the binding signal is 11.1 ln median PBM intensity, better of two orientations.

B28: XGTACX_site5536 (dsDNA)
DNA 1: TAACACACTAAGAAAAGTACTGATTAATATAATTTT
DNA 2: AAAATTATATTAATCAGTACTTTTCTTAGTGTGTTA
Regarding B28, the binding signal was 11.2 ln median PBM intensity, better of two orientations.

B29: XGTACX_site7313 (dsDNA)
DNA 1: TATATACTTTATAAATGTACATATAATGTATTATTT
DNA 2: AAATAATACATTATATGTACATTTATAAAGTATATA
For B29, the binding signal was 11.3 ln median PBM intensity, better of two orientations.

B30: XGTACX_negctrl_site442 (dsDNA)
DNA 1: TATTTTATTTCAAATCTTAATAATTGTAATTCTTCA
DNA 2: TGAAGAATTACAATTATTAAGATTTGAAATAAAATA
Turning to B30, the binding signal is 8.99 ln median PBM intensity, better of two orientations.

B31: XGTACX_site4343 (dsDNA)
DNA 1: TTTATATACTATCAACGTACAAAAGTAATAAAAATA
DNA 2: TATTTTTATTACTTTTGTACGTTGATAGTATATAAA
As to B31, the binding signal is 11.3 ln median PBM intensity, better of two orientations.

B32: XGTACX_site7465 (dsDNA)
DNA 1: TTTAATTCTTATATTTGTACAGATTCATAATTAAAT
DNA 2: ATTTAATTATGAATCTGTACAAATATAAGAATTAAA
Consider B32, for which the binding signal was 11.2 ln median PBM intensity, better of two orientations.

B33: XGTACX_site8705 (dsDNA)
DNA 1: ACTAAAGTGTATCACTGTACAATTCTTCTCTTTTTT
DNA 2: AAAAAAGAGAAGAATTGTACAGTGATACACTTTAGT
B33: the binding signal is 10.9 ln median PBM intensity, better of two orientations.

B34: XGTACX_site7391 (dsDNA)
DNA 1: TGTCAATCATATAAATGTACATTTTAAATGAGGTGT
DNA 2: ACACCTCATTTAAAATGTACATTTATATGATTGACA
Consider B34, for which the binding signal is 11.2 ln median PBM intensity, better of two orientations.

B35: XGTACX_site8441 (dsDNA)
DNA 1: AATAATATCTGAAAATGTACATTTTATTATAAACAT
DNA 2: ATGTTTATAATAAAATGTACATTTTCAGATATTATT
Take B35: the binding signal was 11.2 ln median PBM intensity, better of two orientations.

B36: XGTACX_site287 (dsDNA)
DNA 1: AACAAAGAAAATACATGTACAAAAAATATTAACGAA
DNA 2: TTCGTTAATATTTTTTGTACATGTATTTTCTTTGTT
Turning to B36, the binding signal is 11.2 ln median PBM intensity, better of two orientations.

B37: XGTACX_site4080 (dsDNA)
DNA 1: AATACAATTGAAAATTGTACTTTGTTTTTTATAAAT
DNA 2: ATTTATAAAAAACAAAGTACAATTTTCAATTGTATT
In the case of B37, the binding signal was 11.3 ln median PBM intensity, better of two orientations.

B38: XGTACX_site1856 (dsDNA)
DNA 1: ATAAATTATAATAACTGTACAAAAATAATATATTCA
DNA 2: TGAATATATTATTTTTGTACAGTTATTATAATTTAT
With B38, the binding signal is 11.1 ln median PBM intensity, better of two orientations.

B39: XGTACX_site5487 (dsDNA)
DNA 1: ACAAGTTTAACATTTCGTACTTATTGTGTTTTTTTT
DNA 2: AAAAAAAACACAATAAGTACGAAATGTTAAACTTGT
For the molecule B39, the binding signal is 10.9 ln median PBM intensity, better of two orientations.

B40: XGTACX_site8520 (dsDNA)
DNA 1: ATATGAAAAAGAACTTGTACTAAAGTGGCATATTAT
DNA 2: ATAATATGCCACTTTAGTACAAGTTCTTTTTCATAT
In the case of B40, the binding signal is 11.3 ln median PBM intensity, better of two orientations.

B41: XGTACX_site8642 (dsDNA)
DNA 1: CAAAGCATAGTATGATGTACAAATGTTCCTATAATA
DNA 2: TATTATAGGAACATTTGTACATCATACTATGCTTTG
As for B41, the binding signal is 11 ln median PBM intensity, better of two orientations.
